# Measured values as given in ChEMBL document CHEMBL1811779, “Adenosine deaminase-like protein 1 (ADAL1): characterization and substrate specificity in the hydrolysis of N(6)- or O(6)-substituted purine or 2-aminopurine nucleoside monophosphates” (J Med Chem, 2011).
# The source made the active and inactive calls. No cut-off for these calls is given here.
# B1: N6-Methyl-AMP deaminase (Homo sapiens), Q6DHV7 (protein)
# chain: MIEAEEQQPCKTDFYSELPKVELHAHLNGSISSHTMKKLIAQKPDLKIHDQMTVIDKGKKRTLEECFQMFQTIHQLTSSPEDILMVTKDVIKEFADDGVKYLELRSTPRRENATGMTKKTYVESILEGIKQSKQENLDIDVRYLIAVDRRGGPLVAKETVKLAEEFFLSTEGTVLGLDLSGDPTVGQAKDFLEPLLEAKKAGLKLALHLSEIPNQKKETQILLDLLPDRIGHGTFLNSGEGGSLDLVDFVRQHRIPLELCLTSNVKSQTVPSYDQHHFGFWYSIAHPSVICTDDKGVFATHLSQEYQLAAETFNLTQSQVWDLSYESINYIFASDSTRSELRKKWNHLKPRVLHI
# Experiments:
# [1] = target: T1, N6-Methyl-AMP deaminase (Homo sapiens) (UniProt Q6DHV7); test: (§1) Activity of recombinant human ADAL1 expressed in Escherichia coli by UV-spectrophotometry
# T1 sequence (whole entry): B1 chain
# [2] = substrate: Nc1nc(NC2CC2)c2ncn([C@H]3C=C[C@@H](COP(=O)(O)O)C3)c2n1; test: as §1
# [3] = substrate: COc1nc(N)nc2c1ncn2[C@@H]1O[C@H](COP(=O)(O)O)[C@@H](O)[C@H]1O; test: as §1
# [4] = substrate: COc1nc(N)nc2c1ncn2[C@@H]1O[C@H](COP(=O)(O)O)[C@@H](O)[C@@]1(C)F; test: as §1
# [5] = substrate: C[C@@]1(F)[C@H](O)[C@@H](COP(=O)(O)O)O[C@H]1n1cnc2c(N3CCC3)nc(N)nc21; test: as §1
# [6] = substrate: Nc1ncnc2c1ncn2[C@@H]1O[C@H](COP(=O)(O)O)[C@@H](O)[C@H]1O; test: as §1
# [7] = substrate: CC(C)Oc1nc(N)nc2c1ncn2[C@@H]1O[C@H](COP(=O)(O)O)[C@@H](O)[C@@]1(C)F; test: as §1
# [8] = substrate: O=P(O)(O)OC[C@H]1O[C@@H](n2cnc3c(NC4CCCC4)ncnc32)[C@H](O)[C@@H]1O; test: as §1
# [9] = substrate: COc1nc(N)nc2c1ncn2[C@@H]1O[C@H](COP(=O)(O)O)[C@@H](O)[C@@]1(C)O; test: as §1
# [10] = substrate: COc1nc(N)nc2c1ncn2[C@H]1C[C@H](O)[C@@H](COP(=O)(O)O)O1; test: as §1
# [11] = substrate: CNc1ncnc2c1ncn2[C@@H]1O[C@H](COP(=O)(O)O)[C@@H](O)[C@H]1O; test: as §1
# [12] = substrate: Nc1nc(Cl)c2ncn([C@@H]3O[C@H](COP(=O)(O)O)[C@@H](O)[C@H]3O)c2n1; test: as §1
# [13] = substrate: CCOc1nc(N)nc2c1ncn2[C@@H]1O[C@H](COP(=O)(O)O)[C@@H](O)[C@@]1(C)F; test: as §1
# [14] = substrate: Nc1nc(NC2CC2)c2ncn([C@H]3C=C[C@@H](COP(=O)(O)O)C3)c2n1; test: (§2) Kcat/Km ratio of recombinant human ADAL1 expressed in Escherichia coli
# [15] = substrate: COc1nc(N)nc2c1ncn2[C@@H]1O[C@H](COP(=O)(O)O)[C@@H](O)[C@H]1O; test: as §2
# [16] = substrate: COc1nc(N)nc2c1ncn2[C@@H]1O[C@H](COP(=O)(O)O)[C@@H](O)[C@@]1(C)F; test: as §2
# [17] = substrate: C[C@@]1(F)[C@H](O)[C@@H](COP(=O)(O)O)O[C@H]1n1cnc2c(N3CCC3)nc(N)nc21; test: as §2
# [18] = substrate: Nc1ncnc2c1ncn2[C@@H]1O[C@H](COP(=O)(O)O)[C@@H](O)[C@H]1O; test: as §2
# [19] = substrate: CC(C)Oc1nc(N)nc2c1ncn2[C@@H]1O[C@H](COP(=O)(O)O)[C@@H](O)[C@@]1(C)F; test: as §2
# [20] = substrate: O=P(O)(O)OC[C@H]1O[C@@H](n2cnc3c(NC4CCCC4)ncnc32)[C@H](O)[C@@H]1O; test: as §2
# [21] = substrate: COc1nc(N)nc2c1ncn2[C@@H]1O[C@H](COP(=O)(O)O)[C@@H](O)[C@@]1(C)O; test: as §2
# [22] = substrate: COc1nc(N)nc2c1ncn2[C@H]1C[C@H](O)[C@@H](COP(=O)(O)O)O1; test: as §2
# [23] = substrate: CNc1ncnc2c1ncn2[C@@H]1O[C@H](COP(=O)(O)O)[C@@H](O)[C@H]1O; test: as §2
# [24] = substrate: Nc1nc(Cl)c2ncn([C@@H]3O[C@H](COP(=O)(O)O)[C@@H](O)[C@H]3O)c2n1; test: as §2
# [25] = substrate: CCOc1nc(N)nc2c1ncn2[C@@H]1O[C@H](COP(=O)(O)O)[C@@H](O)[C@@]1(C)F; test: as §2
molecule,measurement,setting,value
Nc1ncnc2c1ncn2[C@@H]1O[C@H](COP(N)(=O)O)[C@@H](O)[C@H]1O,Activity,[1],inactive
O=P(O)(O)OC[C@H]1O[C@@H](n2cnc3c2ncn2ccnc32)[C@H](O)[C@@H]1O,Activity,[1],inactive
Nc1ccn([C@H]2C[C@H](O)[C@@H](COP(=O)(O)O)O2)c(=O)n1,Activity,[1],inactive
Nc1nc(=O)[nH]c2c1ncn2[C@@H]1O[C@H](CO)[C@@H](O)[C@H]1O,Activity,[1],inactive
C[C@H](Cn1cnc2c(N)ncnc21)OCP(=O)(O)O,Activity,[1],inactive
Nc1ncnc2c1ncn2[C@@H]1O[C@H](CO)[C@@H](O)[C@H]1O,Activity,[1],inactive
CCOc1nc(N)nc2c1ncn2[C@@H]1O[C@H](COP(=O)(O)OP(=O)(O)OP(=O)(O)O)[C@@H](O)[C@@]1(C)F,Activity,[1],inactive
Nc1nc(N)c2ncn([C@@H]3O[C@H](CO)[C@@H](O)[C@H]3O)c2n1,Activity,[1],inactive
CSc1nc(N)nc2c1ncn2[C@@H]1O[C@H](COP(=O)(O)O)[C@@H](O)[C@H]1O,Activity,[1],inactive
Nc1nc(NC2CC2)c2ncn([C@H]3C=C[C@@H](CO)C3)c2n1,Activity,[1],inactive
Nc1nc(=S)c2ncn([C@@H]3O[C@H](COP(=O)(O)O)[C@@H](O)[C@H]3O)c2[nH]1,Activity,[1],inactive
C[C@@]1(F)[C@H](O)[C@@H](COP(=O)(O)O)O[C@H]1n1ccc(N)nc1=O,Activity,[1],inactive
CCOc1nc(N)nc2c1ncn2[C@@H]1O[C@H](CO)[C@@H](O)[C@@]1(C)F,Activity,[1],inactive
CNc1ncnc2c1ncn2[C@@H]1O[C@H](CO)[C@@H](O)[C@H]1O,Activity,[1],inactive
COc1nc(N)nc2c1ncn2[C@@H]1O[C@H](COP(=O)(O)N[C@@H](C)C(=O)O)[C@@H](O)[C@@]1(C)F,Activity,[1],inactive
O=C(O)CC(Nc1ncnc2c1ncn2[C@@H]1O[C@H](COP(=O)(O)O)[C@@H](O)[C@H]1O)C(=O)O (stereo not given in full),Activity,[1],inactive
CCOc1nc(N)nc2c1ncn2[C@@H]1O[C@@H]2COP(=O)(O)O[C@H]2[C@@]1(C)F,Activity,[1],inactive
COc1nc(N)nc2c1ncn2[C@@H]1O[C@H](CO)[C@@H](O)[C@H]1O,Activity,[1],inactive
CCOc1nc(N)nc2c1ncn2[C@@H]1O[C@@H]2CO[P@](=O)(OC(C)C)O[C@H]2[C@@]1(C)F,Activity,[1],inactive
Nc1ncnc2c1ncn2CCOCP(=O)(O)O,Activity,[1],inactive
COc1nc(N)nc2c1ncn2[C@@H]1O[C@H](CO)[C@@H](O)[C@@]1(C)F,Activity,[1],inactive
CN1N=C(N)c2cn([C@@H]3O[C@H](COP(=O)(O)O)[C@@H](O)[C@H]3O)c3ncnc1c23,Activity,[1],inactive
COc1nc(N)nc2c1ncn2[C@@H]1O[C@H](COP(=O)(O)OP(=O)(O)O)[C@@H](O)[C@@]1(C)F,Activity,[1],inactive
COc1nc(N)nc2c1ncn2[C@@H]1O[C@H](COP(=O)(N[C@@H](C)C(=O)OC(C)C)Oc2ccccc2)[C@@H](O)[C@@]1(C)F (stereo not given in full),Activity,[1],inactive
B1,Km,[2],7.37 µM
same,kcat,[2],1.63 s⁻¹
same,Km,[3],5.2 µM
same,kcat,[3],2.33 s⁻¹
same,Km,[4],8.96 µM
same,kcat,[4],5.85 s⁻¹
same,Km,[5],8.63 µM
same,kcat,[5],1.55 s⁻¹
same,Km,[6],32.8 µM
same,kcat,[6],0.055 s⁻¹
same,Km,[7],25.9 µM
same,kcat,[7],7.2 s⁻¹
same,Km,[8],14.3 µM
same,kcat,[8],4.24 s⁻¹
same,Km,[9],10.7 µM
same,kcat,[9],2.36 s⁻¹
same,Km,[10],6 µM
same,kcat,[10],2.92 s⁻¹
same,Km,[11],12.5 µM
same,kcat,[11],1.58 s⁻¹
same,Km,[12],16.3 µM
same,kcat,[12],3.64 s⁻¹
same,Km,[13],25.1 µM
same,kcat,[13],8.14 s⁻¹
same,kcat/Km,[14],220000 M⁻¹ s⁻¹
same,kcat/Km,[15],450000 M⁻¹ s⁻¹
same,kcat/Km,[16],650000 M⁻¹ s⁻¹
same,kcat/Km,[17],180000 M⁻¹ s⁻¹
same,kcat/Km,[18],1700 M⁻¹ s⁻¹
same,kcat/Km,[19],280000 M⁻¹ s⁻¹
same,kcat/Km,[20],300000 M⁻¹ s⁻¹
same,kcat/Km,[21],220000 M⁻¹ s⁻¹
same,kcat/Km,[22],490000 M⁻¹ s⁻¹
same,kcat/Km,[23],130000 M⁻¹ s⁻¹
same,kcat/Km,[24],223000 M⁻¹ s⁻¹
same,kcat/Km,[25],320000 M⁻¹ s⁻¹
